Data taken from publication PMC9546572 (Proceedings of the National Academy of Sciences of the …, 2022).
Like-named read-outs stand apart in the source and are kept apart here.

Columns and labels:
Assay in all cases: cryo-EM structure
[1] = target: major capsid protein gp23* (cleaved form of gp23) of bacteriophage T4 (bacteriophage T4)
[2] = target: the molecule itself
[3] = target: the molecule itself; remark: listed apart in the source

major capsid protein gp23* (cleaved form of gp23) of bacteriophage T4 (natural protein)
stoichiometry N [1]: 6

B1: Soc (small outer capsid protein) of bacteriophage T4 (natural protein, UniProt P03715 1-80, looked up)
chain: MASTRGYVNIKTFEQKLDGNKKIEGKEISVAFPLYSDVHKISGAHYQTFPSEKAAYSTVYEENQRTEWIAANEDLWKVTG
stoichiometry N [2]: 3

B2: vertex protein gp24* (cleaved form of gp24) of bacteriophage T4 (natural protein, UniProt P19896 11-427, looked up)
chain: STTTNSNSIGRPNLVALTRATTKLIYSDIVATQRTNQPVAAFYGIKYLNPDNEFTFKTGATYAGEAGYVDREQITELTEESKLTLNKGDLFKYNNIVYKVLEDTPFATIEESDLELALQIAIVLLKVRLFSDAASTSKFESSDSEIADARFQINKWQTAVKSRKLKTGITVELAQDLEANGFDAPNFLEDLLATEMADEINKDILQSLITVSKRYKVTGITDSGFIDLSYASAPEAGRSLYRMVCEMVSHIQKESTYTATFCVASARAAAILAASGWLKHKPEDDKYLSQNAYGFLANGLPLYCDTNSPLDYVIVGVVENIGEKEIVGSIFYAPYTEGLDLDDPEHVGAFKVVVDPESLQPSIGLLVRYALSANPYTVAKDEKEARIIDGGDMDKMAGRSDLSVLLGVKLPKIIIDE
stoichiometry N [3]: 5
